Source: publication PMC4264680
Where two headings read alike, the source gives them in different places.

Legend:
Assay in all cases: EMSA
CREB (purified) [1] = target: T1, CREB (purified) (UniProt P16220 1-327)
CREB (purified) [2] = target: T1, CREB (purified); remark: listed apart in the source
[3] = target: hnRNP K (purified);CREB (purified) (;, UniProt P61978;P16220 1-463;1-327, |)
hnRNP K (purified);CREB (purified), sequence (P16220 whole entry, chain 2 of 2, other chains not shown): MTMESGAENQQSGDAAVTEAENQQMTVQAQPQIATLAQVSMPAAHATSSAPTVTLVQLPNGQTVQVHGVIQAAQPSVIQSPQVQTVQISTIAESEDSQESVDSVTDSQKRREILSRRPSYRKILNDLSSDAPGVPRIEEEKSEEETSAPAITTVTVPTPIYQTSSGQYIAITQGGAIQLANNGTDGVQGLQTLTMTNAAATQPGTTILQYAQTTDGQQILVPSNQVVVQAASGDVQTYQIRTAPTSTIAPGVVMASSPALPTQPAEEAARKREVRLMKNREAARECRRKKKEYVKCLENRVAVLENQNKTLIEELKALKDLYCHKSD

T1 sequence (P16220 whole entry): as the sequence (P16220 whole entry, chain 2 of 2, other chains not shown) above

| Binder | binding result (CREB (purified) [1]) | binding result (CREB (purified) [2]) | binding result [3] |
| --- | --- | --- | --- |
| CRE mutant duplex (EMSA) (dsDNA) DNA 1: GCAGGAGGTAGGAGGTGGGGGACCCAGAGGGGCTTGTCATCAGGCCTGGCC DNA 2: GGCCAGGCCTGATGACAAGCCCCTCTGGGTCCCCCACCTCCTACCTCCTGC | binds | – | – |
| Th GC-R1/CRE duplex WT (EMSA) (dsDNA) DNA 1: GCAGGAGGTAGGAGGTGGGGGACCCAGAGGGGCTTTGACGTCAGCCTGGCC DNA 2: GGCCAGGCTGACGTCAAAGCCCCTCTGGGTCCCCCACCTCCTACCTCCTGC | – | binds | binds |
